Data: PMC8187479, “Sugar phosphate activation of the stress sensor eIF2B” (Nature Communications, 2021)

Target: the molecule itself
Assay: SEC; purified eIF2Bα alone, 2.4 μM, Superose 6 Increase 10/300, 25 mM HEPES, 200 mM KCl, 2 mM MgCl2, 1 mM DTT, pH 7.5; no ligand (500 nM ISRIB had no effect)

B1: eIF2Bα (eukaryotic translation initiation factor 2B, α subunit), wild type, recombinant (natural protein, human)
chain: MDDKELIEYFKSQMKEDPDMASAVAAIRTLLEFLKRDKGETIQGLRANLTSAIETLCGVDSSVAVSSGGELFLRFISLASLEYSDYSKCKKIMIERGELFLRRISLSRNKIADLCHTFIKDGATILTHAYSRVVLRVLEAAVAAKKRFSVYVTESQPDLSGKKMAKALCHLNVPVTVVLDAAVGYIMEKADLVIVGAEGVVENGGIINKIGTNQMAVCAKAQNKPFYVVAESFKFVRLFPLNQQDVPDKFKYKADTLKVAQTGQDLKEEHPWVDYTAPSLITLLFTDLGVLTPSAVSDELIKLYL
notes: eIF2Bα, human, UniProt Q14232; called the small 34 kDa eIF2Bα subunit; C-terminal TEV-avi-FLAG tag; also called eIF2Bα2; α2
stoichiometry N: 2
